Measured values from patent US20230364000A1, “COMPOSITIONS COMPRISING COMBINATIONS OF COLLAGEN OR ELASTIN POLYPEPTIDES WITH ACTIVE INGREDIENTS AND METHODS OF USING SAME” (Geltor, Inc., priority 2020, published 2023).

Assays:
[1] = test system: Human full-thickness skin equivalents (MatTek Epiderm FT co-culture tissue models); assay: Elastin production in human full-thickness skin equivalents (ELISA); assay type: cell-based; conditions: polypeptide 0.1% w/w, retinol (10, unit not given), ascorbic acid 2% w/w, FIG. 20; for production of elastin as compared to untreated cells: each agent alone, day 2, hyaluronic acid 0.1% w/w; for increase of elastin production relative to untreated control: day 2 supernatant
Description: The combination of the truncated human type 21 collagen polypeptide with retinol increased elastin production by 45% relative to untreated control. This appeared to be a synergistic effect as treatment with truncated human type 21 collagen polypeptide alone increased elastin production by 20% and treatment with retinol alone increased elastin production by 17%. The combination of the truncated human type 21 collagen polypeptide with ascorbic acid increased elastin production by 33% relative to untreated control. This appeared to be a synergistic effect as treatment with truncated human type 21 collagen polypeptide alone increased elastin production by 20% and treatment with ascorbic acid alone increased elastin production by 5%.

[2] = test system: Human full-thickness skin equivalents (MatTek Epiderm FT co-culture tissue models); assay: Type I collagen production in human full-thickness skin equivalents (pro-collagen type I C-peptide ELISA); assay type: cell-based; conditions: polypeptide 0.1% w/w, FIG. 18; for production of type I collagen as compared to untreated cells: each agent alone, day 4, retinol (10, unit not given), ascorbic acid 2% w/w, hyaluronic acid 0.1% w/w
Method: Human full-thickness skin equivalents (MatTek Epiderm FT co-culture tissue models) which contain keratinocytes and fibroblasts were treated with a 0.1% w/w truncated human type 21 collagen polypeptide (having an amino acid sequence of SEQ ID NO: 16) (“C21”; FIG. […] Culture medium was changed every 2 days. On day 4, supernatant was collected and analyzed by enzyme-linked immunosorbent assay (ELISA) for pro-collagen type I C-peptide, which is a readout for total secreted collagen type I protein.

[3] = test system: Human full-thickness skin equivalents (MatTek Epiderm FT co-culture tissue models); assay: Fibronectin production in human full-thickness skin equivalents (ELISA); assay type: cell-based; conditions: polypeptide 0.1% w/w, FIG. 19; for production of fibronectin as compared to untreated cells: each agent alone, day 4, retinol (10, unit not given), ascorbic acid 2% w/w, hyaluronic acid 0.1% w/w
[4] = test system: Human full-thickness skin equivalents (MatTek Epiderm FT co-culture tissue models); assay: Type III collagen production in human full-thickness skin equivalents (pro-collagen type III N-peptide ELISA); assay type: cell-based; conditions: polypeptide 0.1% w/w, ascorbic acid 2% w/w, FIG. 21; for production of type III collagen as compared to untreated cells: each agent alone, day 2, retinol (10, unit not given), hyaluronic acid 0.1% w/w
facial skin [5] = assay: Facial skin hydration, clinical study of Example 7; assay type: in vivo, human; conditions: topical facial cream 0.05%, n=18, FIG. 16
Description: (§1) In a clinical study (n=18 subjects), subjects used a topical facial cream containing 0.05% of a polypeptide of SEQ ID NO: 5 for 2 weeks.

[6] = Oxygen radical absorbance capacity (ORAC) assay, cell-free; assay type: biochemical; conditions: for anti-oxidative capacity (ORAC): FIG. 25
Method: The antioxidant potential of a polypeptide of SEQ ID NO: 16 was assessed using the oxygen free radical absorbance capacity (ORAC) assay. The ORAC assay is a cell-free assay that uses a fluorescent readout to measure a product's antioxidant capacity. Data is reported in Trolox (Vitamin E) equivalents.
A polypeptide of SEQ ID NO: 5 was also evaluated in the ORAC assay.
An oxygen radical absorbance capacity (ORAC) assay was performed to analyze the anti-oxidative capacity of a polypeptide according to SEQ ID NO: 52. The ORAC assay is a cell-free assay that uses a fluorescent readout to measure anti-oxidative capacity. Data is reported in Trolox (Vitamin E) equivalents (TEs).

[7] = test system: in vitro full thickness human skin tissue model (MatTek); assay: IL-la ELISA in UVB-irradiated full thickness human skin tissue model; assay type: cell-based; conditions: 300 mJ/cm^2 UVB, then 0.01% for 24 hours; compared to untreated UVB-irradiated control; FIG. 14
Method: In a further study with the in vitro full thickness human skin tissue model (MatTek), the MatTek tissue models were irradiated with 300 mJ/cm^2 UVB light, then treated with 0.01% of a polypeptide of SEQ ID NO: 5 for 24 hours. Levels of pro-inflammatory cytokine IL-la was determined by ELISA.

[8] = test system: human primary keratinocytes; assay: MTT viability of UVB-irradiated keratinocytes, post-irradiation treatment; assay type: cell-based; conditions: 40 mJ/cm^2 UVB, then 48 hours with 0.03%; compared with untreated UVB-irradiated keratinocytes; FIG. 12
Method: Human primary keratinocytes were irradiated with 40 mJ/cm^2 UVB light, then incubated for 48 hours in media with 0.03% of a polypeptide of SEQ ID NO: 5. Cell viability was evaluated using the MTT metabolic colorimetric assay.

facial skin [9] = assay: Cutometer facial skin elasticity, clinical study of Example 7; assay type: in vivo, human; conditions: topical facial cream 0.05%, n=18, FIG. 17
Description: as §1

[10] = test system: in vitro full thickness human skin tissue model (MatTek); assay: Collagen type I secretion by full thickness human skin tissue model (pro-collagen type I C-peptide ELISA); assay type: cell-based; conditions: treatment 48 hours, fresh media another 48 hours (96 hour timepoint); compared with untreated tissue models or positive control Vitamin B3; FIG. 10
Method: A series of in vitro experiments were conducted to assess the effects of a truncated jellyfish collagen on human skin fibroblasts and keratinocytes. An in vitro full thickness human skin tissue model (MatTek) which contains fibroblasts and keratinocytes was evaluated for collagen type I secretion after treatment with a polypeptide of SEQ ID NO: 5 for 48 hours. The tissue models were then rinsed and incubated with fresh media for another 48 hours (96 hour timepoint). The culture supernatants were analyzed by ELISA for pro-collagen type I C-peptide (a readout for total secreted collagen type I protein).

[11] = test system: human primary keratinocytes; assay: Thymine dimers in UVB-irradiated keratinocytes (OxiSelect UV-Induced DNA Damage ELISA); assay type: cell-based; conditions: 25 mJ/cm^2 UVB, then overnight with 0.03%; compared with untreated cells; FIG. 11
Method: In a further study, human primary keratinocytes were irradiated with 25 mJ/cm^2 UVB light, then incubated overnight in media with 0.03% of a polypeptide of SEQ ID NO: 5. DNA was extracted from the cells and analyzed for levels of thymine dimers (an indicator of DNA damage) using an OxiSelect UV-Induced DNA Damage ELISA kit.

[12] = test system: human primary keratinocytes; assay: MTT viability of keratinocytes exposed to urban dust; assay type: cell-based; conditions: pre-treated with 0.03% for 24 hours, then 2 mg/ml urban dust (NIST 1649B) for 24 hours; compared with untreated exposed keratinocytes; FIG. 13
Method: To test for protection from urban dust, human primary keratinocytes were pre-treated with 0.03% of a polypeptide of SEQ ID NO: 5 for 24 hours, and then exposed to 2 mg/ml urban dust (NIST 1649B) for 24 hours. Cell viability was evaluated using the MTT metabolic colorimetric assay.

[13] = test system: human primary fibroblasts; assay: Fibroblast collagen type I protein secretion with truncated elastin (pro-collagen type I C-peptide ELISA); assay type: cell-based; conditions: 48 hours, compared with untreated control fibroblasts, FIG. 24
Method: Fibroblasts are the main source of the extracellular matrix peptides, including the structural proteins collagen and elastin. Human primary fibroblasts were evaluated for collagen type I protein secretion. Fibroblasts were cultured with a polypeptide according to SEQ ID NO: 52 for 48 hours. The culture supernatants were analyzed by ELISA for pro-collagen type I C-peptide, a readout for total secreted collagen type I protein.

Keratinocytes = assay: Clariom microarray global gene expression in keratinocytes; assay type: cell-based; conditions: 0.03% w/w solution, 24 hours, relative to untreated cells
Method: Keratinocytes were incubated for 24 hours with media alone or with 0.03% w/w solution of a polypeptide according to SEQ ID NO: 52. RNA was extracted from the cells and analyzed by Clariom microarray (ThermoFisher) for global gene expression.
Keratinocytes were incubated for 24 hours with media alone (untreated) or with 0.03% w/w solution of a polypeptide according to SEQ ID NO: 52. RNA was extracted from the cells and analyzed by Clariom microarray (ThermoFisher) for global gene expression.

[14] = test system: Human primary fibroblast cultures; assay: Fibroblast elastin production (ELISA kit); assay type: cell-based; conditions: 0.03% w/w solution; 24 hours; compared to media alone; FIG. 28
Method: Human primary fibroblast cultures were treated for 24 hours with media alone (untreated) or with 0.03% w/w solution of a polypeptide having an amino acid sequence according to SEQ ID NO: 52. Supernatants were collected and evaluated for elastin production using an ELISA kit.

[15] = day 4 supernatant, hyaluronic acid 0.1% w/w (low molecular weight, 15-40 kDa)

hyaluronic acid
production of elastin as compared to untreated cells [1]: increased production
increase of type I collagen production relative to the untreated control [2, 15]: 72%
production of type I collagen as compared to untreated cells [2]: increased production
increase of fibronectin production relative to untreated control [3, 15]: 30%
production of fibronectin as compared to untreated cells [3]: increased production
production of type III collagen as compared to untreated cells [4]: increased production

O=C1O[C@H]([C@@H](O)CO)C(O)=C1O [ascorbic acid]
increase of elastin production relative to untreated control [1]: 5%
production of elastin as compared to untreated cells [1]: increased production
production of type I collagen as compared to untreated cells [2]: increased production
production of fibronectin as compared to untreated cells [3]: increased production
increase of type III collagen production relative to untreated control ([4]; day 2 supernatant): 80%
production of type III collagen as compared to untreated cells [4]: increased production

CC1=C(/C=C/C(C)=C/C=C/C(C)=C/CO)C(C)(C)CCC1 [retinol]
increase of elastin production relative to untreated control [1]: 17%
production of elastin as compared to untreated cells [1]: increased production
production of type I collagen as compared to untreated cells [2]: increased production
production of fibronectin as compared to untreated cells [3]: increased production
production of type III collagen as compared to untreated cells [4]: increased production

B1: SEQ ID NO: 5: truncated jellyfish collagen without a His tag, linker, and thrombin cleavage site (protein)
chain: GPQGVVGADGKDGTPGNAGQKGPSGEPGSPGKAGSAGEQGPPGKDGSNGEPGSPGKEGERGLAGPPGPDGRRGETGSPGIAGALGKPGLEGPKGYPGLRGRDGTNGKRGEQGETGPDGVRGIPGNDGQSGKPGIDGIDGTNGQPGEAGYQGGRGTRGQLGETGDVGQNGDRGAPGPDGSKGSAGRPGLR
skin hydration (facial skin [5]; 1 week vs baseline): increased
skin hydration (facial skin [5]; 2 weeks vs baseline): increased
skin hydration relative to topical application of marine collagen (facial skin [5]; baseline, 1 week and 2 weeks): increased skin hydration
antioxidant properties, Trolox (Vitamin E) equivalents ([6]; 0.1% solution): 193 μM Trolox
levels of IL-la [7]: lower levels
cell viability (MTT) [8]: higher cell viability
skin elasticity (cutometer) (facial skin [9]; 1 week vs baseline): increased
skin elasticity (cutometer) (facial skin [9]; 2 weeks vs baseline): increased
secreted collagen type I (pro-collagen type I C-peptide) [10]: higher levels
level of thymine dimers (DNA damage) [11]: lower level
cell viability (MTT) after urban dust exposure [12]: higher cell viability

B2: SEQ ID NO: 52: 13 kDa non-naturally occurring truncated human elastin without the DsbA secretion tag (protein)
chain: AGLGGVPGVGGLGVSAGAVVPQPGAGVKPGKVPGVGLPGVYPGGVLPGARFPGVGVLPGVPTGAGVKPKAPGVGGAFAGIPGVGPFGGPQPGVPLGYPIKAPKLPGGYGLPYTTGKLPYGYGPGGVAGAAGKAGYPTGTGVGPQ
secreted collagen type I (pro-collagen type I C-peptide) ([13]; 0.025% w/w solution): higher levels
secreted collagen type I (pro-collagen type I C-peptide) ([13]; 0.05% w/w solution): higher levels
secreted collagen type I (pro-collagen type I C-peptide) ([13]; 0.1% w/w solution): higher levels
expression of antioxidant genes, including SOD2, GPX2, GPX4, GSTK1, GSTZ1, GSTA4, GSTM2, CCS, GPX1, GLRX, PRDXS, PRDX6, and PRDX2 (Keratinocytes; FIG. 26): upregulated
expression of pro-apoptotic genes, including APAF1, BAK1, CASP7, CASP8, FADD, MCL1, and MET (Keratinocytes; FIG. 27): downregulated
anti-oxidative capacity (ORAC) ([6]; 0.0125% w/w solution): anti-oxidative properties
anti-oxidative capacity (ORAC) ([6]; 0.025% w/w solution): anti-oxidative properties
anti-oxidative capacity (ORAC) ([6]; 0.05% w/w solution): anti-oxidative properties
anti-oxidative capacity (ORAC) ([6]; 0.1% w/w solution): anti-oxidative properties
anti-oxidative properties, Trolox (Vitamin E) equivalents ([6]; 0.2% w/w solution): 228 μM Trolox
anti-oxidative capacity (ORAC) ([6]; 0.2% w/w solution): anti-oxidative properties
production of elastin [14]: increased production
